Consider 142 substances from the supplement of paper PMC12042874.

± gives the uncertainty stated by the source.

The nature of this data set: amyloid nucleation score (Sup35N fusion, yeast selection) (log enrichment); library NNK2; higher = more nucleation; inactive = no reads after selection. In outline: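 Peptides of 20 random codons fused to Sup35N were expressed in psi-negative yeast, induced 24 hours with 100 μM copper sulfate, then grown 7 days at 30°C on medium lacking adenine and uracil. Input and output plasmid inserts were Illumina-sequenced. Nucleation score is the DiMSum log enrichment of output over input reads, centred on the mode score of non-aggregating sequences, excluding sequences with under 100 input reads. Random libraries had three technical output replicates.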
LLWPVA came in with an amyloid nucleation score of 0.386 ± 0.46. Turning to LLYTTCSFGYLMQKFVL, the amyloid nucleation score is 1.58 ± 0.31. As to LMAFCKLQDRNKTPLSSALF, the amyloid nucleation score result is “inactive”.

For the substance LMAHTSFVDFGVKN, the amyloid nucleation score was -0.266 ± 0.23. Substance LMASCHKQRTCRWHPRDRRY returned an amyloid nucleation score of 0.298 ± 0.46. LMCVLTIL had an amyloid nucleation score of 1.25 ± 0.32. Consider LMFARTMRSVRRFFYVGFHH, for which the amyloid nucleation score entry is “inactive”. Substance LMGIEVDGYYGCRCLTP yielded an amyloid nucleation score of 0.236 ± 1.1. In turn, LMGIILF returned an amyloid nucleation score of -1.49 ± 0.78.

Regarding LMIAFKQRFIPS, the amyloid nucleation score stood at 1.12 ± 0.4. With LMIGSEDAMNYGCSCNPYLF, the amyloid nucleation score was -1.04 ± 0.33. With LMKSIVGFMNESPLVIEFGR, the amyloid nucleation score is -0.402 ± 0.27. Substance LMLFDVKGRICGFDLCLIRR came in with an amyloid nucleation score of 0.381 ± 0.62. As for LMNGVGLFNQMGWVVERYLE, the amyloid nucleation score is -0.357 ± 0.4. Next, LMNLVVG: -0.701 ± 0.44. In turn, LMQVSA yielded an amyloid nucleation score of 0.829 ± 0.41. In turn, LMYTFVGCSINVCFGGSGCL displayed an amyloid nucleation score of 8.873 ± 0.034. Substance LNFIGFK had an amyloid nucleation score of 0.102 ± 0.74. The substance LNGLLTIRADVASKSIRLMH registered an amyloid nucleation score of 0.004 ± 0.51. In the case of LNGYNYATCVLSPFFNE, the amyloid nucleation score was -0.497 ± 0.76.

In turn, LNLGREYVGLKD displayed an amyloid nucleation score of 0.246 ± 0.24. For the substance LNLLADNTLYGDSSYVGYLR, the amyloid nucleation score came to 0.021 ± 0.4. LNLLDGWFL registered an amyloid nucleation score of -0.7 ± 0.48.

As to LNMRT, the amyloid nucleation score is -0.443 ± 0.64.

In turn, LNMTSFAVKLEANYL came in with an amyloid nucleation score of -0.565 ± 1.1. Next, LNNHTPDLVWRSSVIGRCQK: 0.47 ± 0.48; LNNYSSGFRGMIVFFVVVYV: -1.06 ± 0.61. Turning to LNQCWRI, the amyloid nucleation score entry is “inactive”. For the substance LNRVGPLVILPIRHLQSTSL, the amyloid nucleation score was found to be 0.65 ± 0.23. On to LNSDVVFIVPRYHNWFRSLR, for which the amyloid nucleation score entry is “inactive”. For LNSMF, the amyloid nucleation score was 0.056 ± 0.31. In turn, LNSQSVFKC displayed an amyloid nucleation score of -0.967 ± 0.55. As for LNSYRPWCWY, the amyloid nucleation score result was “inactive”. With LNTKTCVIPSTTCVTIPERE, the amyloid nucleation score is 0.242 ± 0.17.

On to LNTLSESLEKNSGTLCWAKR, for which the amyloid nucleation score entry was “inactive”. LNTSFLMV showed an amyloid nucleation score of -1.05 ± 0.49. LNVITSVTLRVDWRAVWRKY registered an amyloid nucleation score of 0.134 ± 0.53. Substance LPGLIGS displayed an amyloid nucleation score of 1.96 ± 0.26.

In the case of LPGMNTIILD, the amyloid nucleation score is 2.17 ± 0.081. LPSVDQTATS had an amyloid nucleation score of -0.481 ± 0.35. In the case of LPVREALMRKWMVQLLVFVS, the amyloid nucleation score stood at 2.05 ± 0.1. Substance LPYHCNWHMLSYLTCGYCS came in with an amyloid nucleation score of 0.711 ± 0.6.

As to LQAVPIIANCSSTRTANISL, the amyloid nucleation score result is “inactive”. Next, LQSSKVWDFMLGLGVSGRVE: 1.55 ± 0.14; LQVLSFSLWFMVRCMKLLPT: -0.286 ± 0.65. LQVVKKSNA had an amyloid nucleation score of 3.61 ± 0.061. Regarding LRDIYNFGDSHYFRNYSVTE, the amyloid nucleation score is -0.132 ± 0.31. The substance LRDKCAPCKCSRGSPLTSIC registered an amyloid nucleation score of -0.489 ± 0.63. Substance LRDLLLVRTSSCDSYMWLSP gave an amyloid nucleation score of -0.254 ± 1. Substance LRFLLPPTMTVGMKFSSDAG registered an amyloid nucleation score of 0.062 ± 0.79. Regarding LRFNDFA, the amyloid nucleation score entry was “inactive”.

For the substance LRGLCRVHWRSERAQSMRPG, the amyloid nucleation score came out at 0.892 ± 0.45. For the substance LRGYRGFPYCDLYFVCMLRN, the amyloid nucleation score is -1.06 ± 1.1. The same measure for LRLDLRMPQRYRLGDTFVSS: 0.243 ± 0.24. With LRLIDNYMGSSRMMS, the amyloid nucleation score entry is “inactive”. LRMYCRVTWSISYVSSSPVL displayed an amyloid nucleation score of 2.83 ± 0.087.

LRNVRMYDLSLWSRGTRCEG came in with an amyloid nucleation score of 0.88 ± 0.28.

With LRSCKALGGGVTRPTGYS, the amyloid nucleation score was found to be 0.709 ± 0.47. The same measure for LRSCRMSDDMK: 1.18 ± 0.34; for LRSDESRYPAFHRESSVRSR: 0.377 ± 0.3. Turning to LRTIEASLMGVSNLKKWSFI, the amyloid nucleation score is -0.299 ± 0.48. LRTVDVAR: the amyloid nucleation score was -0.654 ± 0.55. In the case of LRVGSRKVRVWSLVSFCLVV, the amyloid nucleation score is -0.271 ± 0.42. Consider LRVRGRFLNSWSASPRSSDY, for which the amyloid nucleation score came to 3.58 ± 0.053. LSCSILRPVWLYISLIVIID: the amyloid nucleation score is -1.28 ± 0.48. As for LSDRRFKDLMSTFRNAATYF, the amyloid nucleation score was found to be 6.34 ± 0.047. The same measure for LSFKRDELVNLNRFSVQFAQ: -0.694 ± 0.38. The same measure for LSGKT: 0.312 ± 0.54. In the case of LSGWDVHTSSTSVFRNNFIY, the amyloid nucleation score entry is “inactive”. The substance LSHKSVRAKENPIQSSQCES showed an amyloid nucleation score of 1.2 ± 0.33. As for LSHLISVVRRVRKYSYGEVV, the amyloid nucleation score was 0.389 ± 0.64. Substance LSHSDVKRALKWNCFPIGVC showed an amyloid nucleation score of -0.158 ± 0.28. With LSIAYFSSAWCFYL, the amyloid nucleation score was determined as 6.216 ± 0.038. As to LSIGSQAI, the amyloid nucleation score came to 0.501 ± 0.38. As to LSIRYLVYEPN, the amyloid nucleation score is 0.27 ± 0.36. Regarding LSKGTPSQSMMSSLLSINTL, the amyloid nucleation score was -0.159 ± 1. LSKLYTLVRNV registered an amyloid nucleation score of -0.576 ± 0.63.

LSLFHPCLL came in with an amyloid nucleation score of -0.182 ± 0.3. Regarding LSLLRFLNCMRYCLCIGLAS, the amyloid nucleation score is 4.14 ± 0.093. Consider LSMDRESFINERWSSQRVMV, for which the amyloid nucleation score is -0.02 ± 0.5. In turn, LSMQKCSLIIISRCGRSRNM came in with an amyloid nucleation score of 3.77 ± 0.057.

As to LSNLWSSSF, the amyloid nucleation score entry was “inactive”. LSRLN displayed an amyloid nucleation score of -0.055 ± 0.53. As for LSRNTYWYGVEIGLVLSSCT, the amyloid nucleation score amounted to 0.161 ± 0.24. Next, LSRQGRLESVKDGRSMWVSG: -0.283 ± 1.1; LSRRAINHFYNIITEVAGRG: “inactive”. Substance LSSGIMSGCEGGAWCCH displayed an amyloid nucleation score of 0.605 ± 0.66.

Substance LSSPDVPNIHAALRTRTGWA displayed an amyloid nucleation score of -0.328 ± 0.27.

Regarding LSSPLNLQHVFPLTWMYLC, the amyloid nucleation score is -0.742 ± 1.1.

For the substance LSSVMN, the amyloid nucleation score was -0.565 ± 0.33.

The substance LSVCGSWDRRRFGGYDLWCT showed an amyloid nucleation score of 0.903 ± 0.48. LSVCVRHEDGGSIAVECGS gave an amyloid nucleation score of 0.242 ± 0.77. Take LSWITPIKIGISFSLALIFT: the amyloid nucleation score was -0.974 ± 0.49.

LSWRFFLSCWN: the amyloid nucleation score entry is “inactive”. In turn, LSWYLTYTRLTSLVG gave an amyloid nucleation score of -0.097 ± 0.42. The substance LSYRTCYRNMP returned an amyloid nucleation score of 0.328 ± 0.46. The same measure for LTACEQSWLKILLLMEMQTL: -0.137 ± 0.54; for LTFVCVV: 0.048 ± 0.33. Next, LTIPEMNQGLQLSLSIHAQM: -0.902 ± 0.63; LTIYRSHDVRM: 3.88 ± 0.043; LTKVWLPCAFVVSSFDQYQH: 0.764 ± 0.41. Substance LTLYSGVRCFSSYLP came in with an amyloid nucleation score of 0.012 ± 0.41. LTMQKWLF yielded an amyloid nucleation score of 0.28 ± 0.62. For the substance LTSHLYIYGMW, the amyloid nucleation score is -0.766 ± 0.48.

LTSNTNSRMLRCSIMVQQS: the amyloid nucleation score was -0.087 ± 0.45.

As for LTSSRRF, the amyloid nucleation score was 5.724 ± 0.037. As to LTVLFVLTVCFNVAMGCCLS, the amyloid nucleation score is -0.223 ± 0.76. Substance LTWICEFGRSFFSWICVMIG registered an amyloid nucleation score of 0.856 ± 0.14. Next, LVCGHRPNVAAGTQGDCGRW: 1.04 ± 0.32; LVCSKSAGEWAYSRFGVLDL: -0.444 ± 0.44; LVDILLMMYWMWQ: 0.373 ± 0.45. With LVFGVLQVCVLCSVTDNLGA, the amyloid nucleation score was found to be 0.159 ± 0.35. In turn, LVFRMQHSLTHGLLSEPGNR showed an amyloid nucleation score of 2.28 ± 0.17. LVGKFNWCEVQKKCSRFRCR: the amyloid nucleation score is -0.29 ± 0.62.

Consider LVGLISRNKVVRTGIENNKD, for which the amyloid nucleation score is -0.059 ± 0.55.

Regarding LVHFVVSALKT, the amyloid nucleation score result was “inactive”. The substance LVHMLCQ registered an amyloid nucleation score of 0.893 ± 0.24. LVILAGTVRIVRHGLVALQL came in with an amyloid nucleation score of 0.592 ± 0.22.

Take LVKCHANGCFPYLSTIFIRP: the amyloid nucleation score was determined as 0.156 ± 0.41. The substance LVKMTLGCATSMLRCLMLSV yielded an amyloid nucleation score of 0.457 ± 0.24. On to LVLIIK, for which the amyloid nucleation score turned out to be 5.96 ± 0.075. LVMWNRCSIKRVNREMVHSF: the amyloid nucleation score turned out to be 0.538 ± 0.3. Substance LVNNGINPPFGPSSLSRGMK returned an amyloid nucleation score of -0.31 ± 0.4. As to LVQLMMMFWKRGLRDSANMV, the amyloid nucleation score was -1.13 ± 0.78. Regarding LVREWHRKNSSGPRIVVRRQ, the amyloid nucleation score was determined as 4.18 ± 0.079. For LVRPILLYYSMLV, the amyloid nucleation score entry was “inactive”.

In turn, LVSFKGKVLFFIS registered an amyloid nucleation score of 1.86 ± 0.13.

LVSLVQRYLDHRPDNKM returned an amyloid nucleation score of -0.05 ± 0.48. As to LVSVVWTKCRRGQRGVLVAS, the amyloid nucleation score is 1.06 ± 0.38. The substance LVTLFESGFFRRLTSMDGLF registered an amyloid nucleation score of 0.115 ± 0.51. LVVLD: the amyloid nucleation score is -0.262 ± 0.79. The same measure for LVVLNYGVIHNMNSWPWRWG: 9.861 ± 0.047.

For LVVVMWR, the amyloid nucleation score was found to be 2.82 ± 0.19. The same measure for LVVVPTTGRVADRQWVMRNG: 0.86 ± 0.2; for LWCSDCISTEIIHNQRFA: -0.152 ± 1. Next, LWIYRVAYFGFLNYKFSVFL: -1.09 ± 0.42; LWLADDSATRV: 0.814 ± 0.19.

As for LWNVD, the amyloid nucleation score came to 2.94 ± 0.19. Turning to LWSRVVVWQDRYVV, the amyloid nucleation score result was “inactive”. In turn, LWTHGSYSVLRLIEPVGAQE returned an amyloid nucleation score of 0.971 ± 0.51.

As to LYCRTPFCTMTLELMKMTL, the amyloid nucleation score came out at 0.128 ± 0.24. The same measure for LYDGSVRQWTDEHWWVMSGG: 0.988 ± 0.28.
